The target of data set [1] is T1, UHRF1 SRA domain (NP95) (mouse, UniProt Q8VDF2 419-628).
T1 sequence: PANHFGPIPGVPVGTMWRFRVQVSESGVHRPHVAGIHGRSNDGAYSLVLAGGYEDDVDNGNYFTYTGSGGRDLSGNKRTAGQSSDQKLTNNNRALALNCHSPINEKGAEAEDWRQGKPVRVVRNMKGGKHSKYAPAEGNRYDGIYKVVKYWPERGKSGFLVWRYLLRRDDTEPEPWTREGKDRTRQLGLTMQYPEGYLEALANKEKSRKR
Description: X-ray crystallography.

Data set [2] addresses T1, UHRF1 SRA domain (NP95). The data set is described as follows: X-ray crystallography. The source holds these as a separate data set.

Like-named read-outs stand apart in the source and are kept apart here.

B1: unmethylated CpG 12-bp duplex (dsDNA)
DNA 1: AACTGCGCAGTT
DNA 2: AACTGCGCAGTT
In the case of B1, the binding result with UHRF1 SRA domain (NP95) [1] is given as “binds”.

B2: hemimethylated CpG 12-bp duplex (dsDNA)
DNA 1: TCCATGCGCTGAC
DNA 2: GTCAGCGCATGG
modifications: 5-methylcytosine at position 6 of strand 2 (…); strand 1 unmethylated
In the case of B2, in the data set with UHRF1 SRA domain (NP95) [2], the binding result is given as “binds”.

Source of the values: PMC2602803.
